Test results reported in patent US11523990B2, “Non-covalent, self-organzing hydrogel matrix for biotechnological applications” (DENOVOMATRIX GMBH, priority 2012, dated 2022).
“Also recorded” adds a separate entry of the source.

Columns and labels:
Assay type in all cases: physicochemical
[1] = Erosion experiment with TAMRA-marked 14-kDa-heparin; details: 5 mM conjugate + 5 mM TAMRA-heparin, cell culture medium with 2% FBS, 37° C.
Experimental: Further, an erosion experiment was conducted. For this purpose peptide-starPEG-conjugates were respectively mixed with TAMRA-marked 14-kDa-heparin. For the erosion experiment the TAMRA-marked 14-kDa-heparin had to be synthesized beforehand. Hereby 14-kDa-heparin was marked with 5-(and-6)-carboxytetramethylrhodamin (TAMRA, Invitrogen) by using the 1-ethyl-3-(3-dimethylaminopropyl)carbodiimide/N-hydroxysulfosuccinimide-(EDAC/sNHS)-chemistry. Heparin, TAMRA, EDAC, sNHS and Na2CO3 were mixed at a ratio of 1:2:5:4:20 in water and incubated overnight. Thereafter the mixture was dialyzed for two days against 10 liters of water in a dialysis membrane with an exclusion limit of 8 kDa with constant exchange of water. The dialyzed product was filtered through a 0.22 μm polyvinylidene fluoride filter (PVDF-filter) and freeze-dried to a red product.
Subsequently the peptide-starPEG-conjugates were respectively mixed with the TAMRA-labelled 14-kDa-heaprin in 50 μl cell culture medium to a final concentration of 5 mM. […] The fluorescence was measured at defined time points in the supernatant by using a plate reading device (BECKMAN COULTER […] Detection platform, BECKAMN COULTER, Brea, Calif., USA) and black 96-well-plates with clear bottom.
Both peptides shoed without heparin a random coiled structure in Milli-Q-water. […] The fluorescence was measured in 200 μl of 1 ml supernatant. […]

[2] = Stability of formed hydrogels against different solvents; details: 24° C., at least three days
Experimental: In order to test the strength of the interaction between the peptide motif and the 14-kDa-heparin the formed hydrogels were tested with regard to different solvents. […] For this the peptide-starPEG-conjugates were mixed with 14 kDa-heparin in 50 μl in physiological phosphate buffer solution (1×PBS) to a final concentration of respectively 5 mM. Each solvent, i.e., physiological phosphate buffer solution (1×PBS), Milli-0-water, 1 M hydrochloric acid (HCl) 1 M sodium hydroxide solution (NaOH), saturated sodium chloride solution (NaCl), dimethyl sulfoxide (DMSO), ethanol and cell culture medium with 2% fetal bovine serum (FBS) were respectively added as 200 μl supernatant to the hydrogel. The hydrogel was incubated at a room temperature of 24° C. and the supernatants where exchanged every day for at least three days. All experiments were performed three times. Under none of the tested conditions the KA7-hydrogel could be destroyed. […] 2,2,2-trifuourethanlol (TFE) is known to destroy any type of secondary structures.

[3] = Hydrogel formation in different solvents; details: 5 mM conjugate + 5 mM 14-kDa-heparin
Experimental: Three respective different cases were tested in the hydrogel-formation stability test. […] The hydrogels were formed by mixing the final concentrations of respectively 5 mM peptide-starPEG-conjugate and 5 mM 14-kDa-heparin in 50 μl physiological phosphate buffer solution (1×PBS), Milli-Q-water or cell culture medium with 2% fetal bovine serum (FBS). The stability of the hydrogels was tested with the same solvent in which it was formed in 200 μl supernatant. The hydrogels were incubated at room temperature (24° C.), the supernatants were changed every day for at least three days in a row and the result after at least 3 days analyzed.

[4] = High-throughput centrifuge analysis of mechanical properties of the hydrogels (surface deformation, metal bead penetration); details: 5 mM peptide-starPEG + 5 mM 14-kDa-heparin
Experimental: ATIII is a heparin-binding peptide known from the literature. All peptides are connected to a four-armed, maleimide functionalized 10-kDa-polyethylene glycol (starPEG). The hydrogel formation was tested in a 50 μI mixture, which contains 5 mM 14-kDa-heparin and 5 mM (2.5 mM) peptide-starPEG conjugate in phosphate buffer solution (1×PBS, pH 7.4). The deformation and penetration speed was analyzed through centrifuging the hydrogel in a 45° table centrifuge with 275 μm metal beads added to the surface. The deformation of the surface and the penetration of the metal beads were monitored in dependence on the applied force.
A comparative high-throughput analysis was performed regarding the mechanical properties of the hydrogels. In order to provide a fast high-throughput method for comparing small amounts of hydrogel, a tabletop centrifuge (5424R, Eppendorf, Hamburg, Germany) was used. For this purpose, 50 μl of the hydrogel were formed by mixing the peptide-starPEG-conjugates and 14-kDa-heparin in phosphate buffer (1×PBS, pH 7.4) to a final concentration of 5 mM (once 2.5 mM for KA7-starPEG). The mixture was incubated in 0.2 ml reaction vessels overnight. The deformation of the hydrogel surface was determined in reference to the 45° centrifuge rotor and the penetration of 275 μm metal beads in dependence on the force that has to be produced by the centrifuge. All experiments were repeated three times.
Hereby FIGS. 5A and B show a deformation of the surface of the 50 μl hydrogel in a 0.2 ml reaction tube, more specifically FIG. 5A below the speed required for deforming the surface, and FIG. 5B at the speed required for deforming the surface. FIG. 5C is a schematic representation of the penetration of a small spheres through 50 μl hydrogel in a 0.2 ml reaction tube depending on the force exerted by the 45° centrifuge.
The hydrogels were formed by mixing peptide-starPEG-conjugate and 14-kDa-heparin at 5 mM final concentration in 50 μl phosphate buffer (1×PBS). The analysis was performed by centrifuging the hydrogels in a 45° tabletop centrifuge with 275 μm metal beads on the gel surface. The deformation of the surface and the penetration of the spheres were recorded in dependence on the exerted force.

Sequence: CWGGKAKAKAKAKA [KA5]
- Heparin released from the hydrogel (erosion) [1]: more erosion
- Stability of hydrogel against supernatant ([2]; supernatant 1M HCl): only destroyed by 1 M HCl after more than one week incubation; also recorded: Stable; hydrogel was
- Stability of hydrogel against supernatant ([2]; supernatant 1M NaOH): Stable
- Stability of hydrogel against supernatant ([2]; supernatant 1xPBS, 5 mM conjugate + 5 mM heparin gel): Stable
- Stability of hydrogel against supernatant ([2]; supernatant Cell culture medium with 2% FBS): Stable
- Stability of hydrogel against supernatant ([2]; supernatant DMSO): Stable
- Stability of hydrogel against supernatant ([2]; supernatant Ethanol): Stable
- Stability of hydrogel against supernatant ([2]; supernatant Saturated NaCl solution): Stable
- Stability of hydrogel against supernatant ([2]; supernatant Water): Stable
- Hydrogel formation in solvent ([3]; Cell culture medium with 2% FBS): formed
- Hydrogel formation in solvent ([3]; PBS, 50 μl, result after at least 3 days): formed
- Hydrogel formation in solvent ([3]; water (Milli-Q)): Formed
- Deformation speed ([4]; 50 μl 1×PBS, 45° centrifuge): 11223 +/- 4768 m/s^2
- Penetration speed ([4]; 275 μm metal beads): 21209 +/- 2188 m/s^2
